Consider one substance from US20150018278.

For data set [1], the system named is constitutively active form of chicken E2F4 (Thr261Glu/Thr263Glu).
In data set [2] the test system is chicken transcription factor E2F4.
In data set [3] the test system is negative dominant form of chicken E2F4 (Thr261Ala/Thr263Ala).
negative dominant form of chicken E2F4 (Thr261Ala/Thr263Ala), sequence (chain, as listed by the source T261A T263A): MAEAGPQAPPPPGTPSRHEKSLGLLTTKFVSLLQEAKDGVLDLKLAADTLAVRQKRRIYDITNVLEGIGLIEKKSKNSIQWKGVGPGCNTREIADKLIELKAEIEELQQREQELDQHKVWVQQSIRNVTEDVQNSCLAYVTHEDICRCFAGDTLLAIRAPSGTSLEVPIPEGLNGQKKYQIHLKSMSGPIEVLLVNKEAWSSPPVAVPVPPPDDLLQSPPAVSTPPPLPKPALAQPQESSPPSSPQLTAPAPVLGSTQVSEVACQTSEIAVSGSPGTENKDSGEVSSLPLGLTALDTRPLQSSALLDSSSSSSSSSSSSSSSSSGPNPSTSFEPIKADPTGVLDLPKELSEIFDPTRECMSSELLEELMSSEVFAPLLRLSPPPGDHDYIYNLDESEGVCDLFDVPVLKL

chicken transcription factor E2F4, sequence (chain, as listed by the source): as the sequence (chain, as listed by the source T261A T263A) above, with A249T, A251T counted along it
constitutively active form of chicken E2F4 (Thr261Glu/Thr263Glu), sequence (chain, as listed by the source T261E T263E): as the sequence (chain, as listed by the source T261A T263A) above, with A249E, A251E counted along it

Regarding p38^MAPK, the “incorporation of BrdU” value in data set [1] is “The incorporation of BrdU increases significantly in cells transfected with the constitutively active form of E2F4 (E2F4-CA), an effect that can be observed even in the presence of selective p38^MAPK inhibitor SB203580 (used at 5 µM)”; in data set [3], “The expression of the negative dominant form of E2F4 (E2F4-ND) prevents the effect of 100 ng/ml NGF on the incorporation of BrdU in retinal neurogenic cultures”. Besides, the “phosphorylation on threonine residues of E2F4 (Western blot with anti-phosphoThr antibodies in extracts immunoprecipitated with anti-E2F4 antibodies)” value in data set [2] is listed as “The presence of NGF can be seen to involve an increase in phosphorylation on threonine residues, while the presence of p38^MAPK inhibitor inhibits such phosphorylation”.
